# Measured values taken from US12460006B2, “Antibodies against integrin alpha 11 beta 1” (Momenta Pharmaceuticals, Inc., priority 2019, dated 2025).
# T1: I domain of α11β1 (Homo sapiens, UniProt Q9UKX5)
# T1 construct: An in-house generated I domain of α11β1 was used; made in house
# T1 sequence (Q9UKX5 164-345 limits assumed): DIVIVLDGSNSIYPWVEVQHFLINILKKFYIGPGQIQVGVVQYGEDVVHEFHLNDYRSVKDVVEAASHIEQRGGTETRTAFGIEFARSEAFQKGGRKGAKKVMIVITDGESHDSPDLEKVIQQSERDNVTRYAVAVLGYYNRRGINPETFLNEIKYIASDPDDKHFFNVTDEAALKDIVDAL
# How the values were obtained:
# I domain of α11β1 = molecular target: T1, I domain of α11β1; assay: ELISA binding to in-house generated I domain of α11β1; conditions: Yes/No
# In short: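 Plate-coated antigen (0.25 μg/mL, overnight 4° C) probed with antibody dilution series 1 h at room temperature, then biotinylated anti-IgG and streptavidin-HRP, 1 h each. TMB substrate 5 min, stopped, absorbance at 450 nm; in-house I domain of α11β1 used as target.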
# [1] = tested on: human pulmonary fibroblasts (HPFs); assay: FACS antibody binding to human pulmonary fibroblasts; conditions: binding Yes/No
# myofibroblasts (MF) = assay: FACS antibody binding to myofibroblasts; set-up: species or system human; conditions: binding Yes/No
# In short: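 Human pulmonary fibroblasts, serum-starved 24 h then TGFβ-1-treated 72 h to give myofibroblasts, were blocked with heat-inactivated FBS and stained with anti-α11 antibodies, then PE secondary, 30 min each at 4 °C, before 1% PFA fixation. Binding read by flow cytometry as PE geometric MFI of single cells.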
# [2] = tested on: CHO-K1 cells expressing human α11; assay: Cell adhesion inhibition (xCelligence), type I collagen; type: cell-based; conditions: Yes/No
# In short: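 CHO-K1 cells expressing human α11 (0.6×10^6 cells/mL) were preincubated with mAbs across a concentration range for 20 min at 37° C, then seeded on wells coated with 100 ng/mL type I collagen and blocked with 3% BSA. Impedance-based adhesion was recorded over 6 h, and maximum adhesion was compared with untreated control.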
# [3] = tested on: Human Pulmonary Fibroblasts; assay: Fibroblast-to-Myofibroblasts Transition (FMT), αSMA expression; type: cell-based; conditions: Yes/No
# In short: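 Cells seeded at 20,000/well, serum-starved 24 h, then given TGFβ-1 with or without anti-α11 antibodies for 48 h; polyclonal anti-α11 and isotype IgG served as controls. Fixed, permeabilized cells were stained for αSMA and analysed by flow cytometry (single-cell gMFI). Values are normalized to untreated control as % inhibition.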
Molecule,I Domain binding (I domain of α11β1),HPF FACS [1],MF FACS (myofibroblasts (MF)),Inhibition of CHO-K1 adhesion to collagen [2],Inhibition of FMT [3]
"7-H14: mouse anti-α11β1 mAb; VH SEQ ID NO: 121, VL SEQ ID NO: 122 (antibody, V domains shown) VH: QVQLQQPGAELVRPGASVKLSCKPSGYTFTSYWMNWVKQRPGQGLEWIGMIDPSDSETHYNQMFKDKATLTVDKSSNTAYMQLSSLTSEDSAVYYCAQIYYAYDKAYWGQGTLVTVSA VL: DIVMSQSPSSLAVSVGEKVTMSCKSSQSLLYSSHQKNYLAWYQQKPGQSPKLLIYWASTRESGVPDRFTGSGSGTDFSLTISSVKAEDLAVYYCQEYYSWTFGGGTKLEIK",No,No,Yes,No,No
"7D8B10: rat anti-α11β1 mAb; VH SEQ ID NO: 153, VL SEQ ID NO: 154 (antibody, V domains shown) VH: MDLRLTYVFIVAILKGVLCEVKLEESGGGLVQPGMSVKLSCATSGFIFSDYWMEWVRQAPGKGLEWVAEIRNKANNYATYYGKSMKGRFTISRDDSKSIVYLQVNSIRSEDTAIYYCAPNFDYWGQGVMVTVSS VL: MSPVQSLFLLLLWILGTHGDVVLTQTPPTLSATIGQSVSISCRSSQSLLHSTGNTYLNWLLQRPGQPPQLLIYLVSRLESGVPNRFSASGSGTDFTLKISGIEAEDLGVYYCVQSSHTPYTFGTGTKLELK",No,No,Yes,No,Yes
"6G4: rabbit anti-α11β1 mAb; heavy chain SEQ ID NO: 181, light chain SEQ ID NO: 182 (antibody) heavy: METGLRWLLLVAVLKGVQCQQQLEESGGGLVKPGGTLTLTCKASGVALNPYYYMCWVRQAPGKGLEWIACVDADSSGSTYYASWAKGRFTISKTSSTTVTLKMTSLTAADTATYFCARESVDYSSVGIGYVHGTDGLWGPGTLVTVSSGQPKAPSVFPLAPCCGDTPSSTVTLGCLVKGYLPEPVTVTWNSGTLTNGVRTFPSVRQSSGLYSLSSVVSVTSSSQPVTCNVAHPATNTKVDKTVAPSTCSKPMCPPPELPGGPSVFIFPPKPKDTLMISRTPEVTCVVVDVSQDDPEVQFTWYINNEQVRTARPPLREQQFNSTIRVVSTLPIAHQDWLRGKEFKCKVHNKALPAPIEKTISKARGQPLEPKVYTMGPPREELSSRSVSLTCMINGFYPSDISVEWEKNGKAEDNYKTTPTVLDSDGSYFLYSKLSVPTSEWQRGDVFTCSVMHEALHNHYTQKSISRSPGK light: MDTRAPTQLLGLLLLWLPGARCADIVVTQTPSSVSAAVGGTVTIKCQASQSISNYFSWYQQKPGQPPKLLIYRASTLASGVPSRFKGSGSGTEFTLTISDLECADAATYYCQCTYGRSNSNFFYGFGGGTEVVVKGDPVAPTVLIFPPAADQVATGTVTIVCVANKYFPDVTVTWEVDGTTQTTGIENSKTPQNSADCTYNLSSTLTLTSTQYNSHKEYTCKVTQGTTSVVQSFNRGDC",No,No,Yes,Yes,No

# Further lines, with some results ahead:
I Domain binding (I domain of α11β1),HPF FACS [1],MF FACS (myofibroblasts (MF)),Molecule,Inhibition of CHO-K1 adhesion to collagen [2],Inhibition of FMT [3]
No,No,Yes,"6C7: rabbit anti-α11β1 mAb; heavy chain SEQ ID NO: 185, light chain SEQ ID NO: 186 (antibody) heavy: METGLRWLLLVAVLKGVQCQQQLEESGGGLVKPGGTLTLTCKASGIDFSSYYYMCWVRQAPGKGLELIVCIYTSSGGTWYASWVNGRLTISRSTSLNTVDLKMTSLTAADTATYFCARGVYSGSSDYPTRLDLWGQGTLVTVSLGQPKAPSVFPLAPCCGDTPSSTVTLGCLVKGYLPEPVTVTWNSGTLTNGVRTFPSVRQSSGLYSLSSVVSVTSSSQPVTCNVAHPATNTKVDKTVAPSTCSKPMCPPPELPGGPSVFIFPPKPKDTLMISRTPEVTCVVVDVSQDDPEVQFTWYINNEQVRTARPPLREQQFNSTIRVVSTLPIAHQDWLRGKEFKCKVHNKALPAPIEKTISKARGQPLEPKVYTMGPPREELSSRSVSLTCMINGFYPSDISVEWEKNGKAEDNYKTTPTVLDSDGSYFLYSKLSVPTSEWQRGDVFTCSVMHEALHNHYTQKSISRSPGK light: MDTSTSTALLGLLLLWLTGARCAIEMTQSPPSLSASVGETVRIRCLASEDIYSGISWYQQKPEKPPTLLISGASNLESGVPPRFSGGGSGTDYTLTIGGVQAEDVATYYCLGGYSFSSTGLTFGAGTKVEIKRDPVAPSVLLFPPSKEELTTGTATIVCVANKYFPDVTVTWEVDGTTQTTGIENSKTPQNSADCTYNLSSTLTLTSTQYNSHKEYTCKVTQGTTSVVQSFNRGDC",Yes,No
Yes,No,Yes,"9-B11: mouse anti-α11β1 mAb; VH SEQ ID NO: 115, VL SEQ ID NO: 116 (antibody, V domains shown) VH: QVQLQQPGAELVRPGTSVKLSCKASGYTFTSYWMHWVQQRPGQGLEWIGVIDPSDSYTNYNQKFKGKATLTVDTSSSSAYMQLSSLTSEDSAVYYCARDDVAMDYWGQGTSVTVSS VL: DIVVTQSPASLAVSLGQRATISCRASESVDSYGNSFIHWYQQKPGQPPKLLIYRASNLKSGIPARFSGSGSRTDFTLTINPVEADDVATYYCQQSNEDPYTFGGGTKLEIK",Yes,Yes
No,No,Yes,"6F9: rabbit anti-α11β1 mAb; heavy chain SEQ ID NO: 183, light chain SEQ ID NO: 184 (antibody) heavy: METGLRWLLLVAVLKGVQCQSLEESGGDLVKPGASLTLTCTASGSSFSSTYWNCWVRQAPGKGLEWIACINAGSGTTYYASWAKGRFTVSKTSSTTVTLQMTSLTAADTATYFCTRDSDGRFSSGYYFNLWGPGTLVTVSSGQPKAPSVFPLAPCCGDTPSSTVTLGCLVKGYLPEPVTVTWNSGTLTNGVRTFPSVRQSSGLYSLSSVVSVTSSSQPVTCNVAHPATNTKVDKTVAPSTCSKPMCPPPELPGGPSVFIFPPKPKDTLMISRTPEVTCVVVDVSQDDPEVQFTWYINNEQVRTARPPLREQQFNSTIRVVSTLPIAHQDWLRGKEFKCKVHNKALPAPIEKTISKARGQPLEPKVYTMGPPREELSSRSVSLTCMINGFYPSDISVEWEKNGKAEDNYKTTPTVLDSDGSYFLYSKLSVPTSEWQRGDVFTCSVMHEALHNHYTQKSISRSPGK light: MDTRAPTQLLGLLLLWLPGATFAQVLTQTASPVSAAVGGTVTINCQSSQSVYDNNWLAWYQQKPGQPPKLLIDDASKLTSGVSSRFKGSGSGTQFTLTISGVQCDDAATYYCQGAYYSSGWYWAFGGGTEVVVKGDPVAPTVLIFPPAADQVATGTVTIVCVANKYFPDVTVTWEVDGTTQTTGIENSKTPQNSADCTYNLSSTLTLTSTQYNSHKEYTCKVTQGTTSVVQSFNRGDC",Yes,No
No,No,Yes,"4E1: rabbit anti-α11β1 mAb; heavy chain SEQ ID NO: 195, light chain SEQ ID NO: 196 (antibody) heavy: METGLRWLLLVAVLKGVQCQSLEESGGDLVKPGTSLTLSCTASGFSFGSYYYMCWVRQAPGKGLEWIACIDVGSSGDTYYASWVNGRFTISKTSSTTVTLQMTSLTAADTATYFCARDDTAAGGFGNLELWGPGTLVTVSSGQPKAPSVFPLAPCCGDTPSSTVTLGCLVKGYLPEPVTVTWNSGTLTNGVRTFPSVRQSSGLYSLSSVVSVTSSSQPVTCNVAHPATNTKVDKTVAPSTCSKPMCPPPELPGGPSVFIFPPKPKDTLMISRTPEVTCVVVDVSQDDPEVQFTWYINNEQVRTARPPLREQQFNSTIRVVSTLPIAHQDWLRGKEFKCKVHNKALPAPIEKTISKARGQPLEPKVYTMGPPREELSSRSVSLTCMINGFYPSDISVEWEKNGKAEDNYKTTPTVLDSDGSYFLYSKLSVPTSEWQRGDVFTCSVMHEALHNHYTQKSISRSPGK light: MDTRAPTQLLGLLLLWLPGARCAFELTQTPSSVSEPVGGTVTIKCQASQSIYSYFSWYQQKPGQPPKRLIYQASTLASGVPSRFKGSGSGTDFTLTISDLECADAATYYCQNNYGRGSGSYFFGFGGGTEVVVKGDPVAPTVLIFPPAADQVATGTVTIVCVANKYFPDVTVTWEVDGTTQTTGIENSKTPQNSADCTYNLSSTLTLTSTQYNSHKEYTCKVTQGTTSVVQSFNRGDC",Yes,No
